4 molecules from US20120207760A1 can be followed below.

What all share (details): remark: other sources report otherwise
The target in assay [1] is T1, recombinant homotrimeric HA, A/South Carolina/1/18 H1N1 (Influenza A virus A/South Carolina/1/18 (H1N1)). As to the kind of experiment: trimeric HA microarray, transfection set 5.
Assay [2] has as its target T2, recombinant homotrimeric HA, A/Wisconsin/67/05 H3N2 (Influenza A virus A/Wisconsin/67/05 (H3N2)). The assay can be described thus: trimeric HA microarray, transfection set 5.
The target of assay [3] is T3, recombinant homotrimeric HA, A/Solomon Islands/3/06 H1N1 (Influenza A virus A/Solomon Islands/3/06 (H1N1)). The assay can be described thus: trimeric HA microarray, transfection set 5.
Assay [4] concerns the target T4, recombinant homotrimeric HA, A/swine/Ontario/01911-2/99 H4N6 (Influenza A virus A/swine/Ontario/01911-2/99 (H4N6)). As to the kind of experiment: trimeric HA microarray, transfection set 5.
Assay [5] concerns the target T5, recombinant homotrimeric HA, A/Japan/305/57 H2N2 (Influenza A virus A/Japan/305/57 (H2N2)). As to the kind of experiment: trimeric HA microarray, transfection set 5.
The target of assay [6] is recombinant soluble homotrimeric HA of A/duck/Yangzhou/02/05 (H8N4) (Influenza A virus A/duck/Yangzhou/02/2005 (H8N4)). The assay can be described thus: microarray, BCC supernatant IgG, trimeric HA.
In assay [7] the target is recombinant soluble homotrimeric HA of A/Egypt/3300-NAMRU3/08 - H5N1 (Influenza A virus A/Egypt/3300-NAMRU3/2008 (H5N1)). As to the kind of experiment: micro-array; captured IgG, V5-tagged trimeric HA.
Assay [8] concerns the target T1, recombinant homotrimeric HA, A/South …. As to the kind of experiment: trimeric HA microarray, transfection set 4.
Assay [9] addresses recombinant homotrimeric HA, A/Vietnam/1203/04 H5N1 (Influenza A virus A/Vietnam/1203/04 (H5N1)). The assay can be described thus: trimeric HA microarray, transfection set 4.
The target of assay [10] is recombinant homotrimeric HA, A/Hong Kong/1073/99 H9N2 (Influenza A virus A/Hong Kong/1073/99 (H9N2)). The assay can be described thus: trimeric HA microarray, transfection set 4.
In assay [11] the target is recombinant homotrimeric HA, A/chicken/Vietnam/NCVD-016/08 H5N1 (Influenza A virus A/chicken/Vietnam/NCVD-016/08 (H5N1)). As to the kind of experiment: trimeric HA microarray, transfection set 4.
Assay [12] concerns the target T6, recombinant homotrimeric HA, A/California/4/09 H1N1 (Influenza A virus A/California/4/09 (H1N1)). As to the kind of experiment: trimeric HA microarray, transfection set 4.
The target in assay [13] is T2, recombinant homotrimeric HA, …. The assay can be described thus: trimeric HA microarray, transfection set 4.
Assay [14] concerns the target recombinant homotrimeric HA, A/Hong Kong/2108/03 H9N2 (Influenza A virus A/Hong Kong/2108/03 (H9N2)). As to the kind of experiment: trimeric HA microarray, transfection set 4.
For assay [15], the target named is T7, recombinant homotrimeric HA, A/Indonesia/5/05 H5N1 (Influenza A virus A/Indonesia/5/05 (H5N1)). The assay can be described thus: trimeric HA microarray, transfection set 4.
The target in assay [16] is recombinant homotrimeric HA, A/duck/Yangzhou/02/05 H8N4 (Influenza A virus A/duck/Yangzhou/02/2005 (H8N4)). The assay can be described thus: trimeric HA microarray, transfection set 4.
Assay [17] addresses T3, recombinant homotrimeric HA, A/Solomon …. The assay can be described thus: trimeric HA microarray, transfection set 4.
Assay [18] concerns the target recombinant homotrimeric HA, A/northern shoveler/California/HKWF115/07 (Influenza A virus A/northern shoveler/California/HKWF115/2007 (H6N1)). As to the kind of experiment: trimeric HA microarray, transfection set 4.
In assay [19] the target is recombinant homotrimeric HA, A/common magpie/Hong Kong/5052/07 H5N1 (Influenza A virus A/common magpie/Hong Kong/5052/07 (H5N1)). The assay can be described thus: trimeric HA microarray, transfection set 4.
Assay [20] addresses T5, recombinant homotrimeric HA, …. The assay can be described thus: trimeric HA microarray, transfection set 4.
Assay [21] has as its target recombinant homotrimeric HA, A/Egypt/3300-NAMRU3/08 H5N1 (Influenza A virus A/Egypt/3300-NAMRU3/08 (H5N1)). The assay can be described thus: trimeric HA microarray, transfection set 4.
For assay [22], the target named is T6, recombinant homotrimeric HA, …. As to the kind of experiment: trimeric HA microarray, transfection set 5.
Assay [23] addresses T7, recombinant homotrimeric HA, …. The assay can be described thus: trimeric HA microarray, transfection set 5.
Assay [24] deals with recombinant soluble homotrimeric HA of A/northern shoveler/California/HKWF115/07 (Influenza A virus A/northern shoveler/California/HKWF115/2007). As to the kind of experiment: microarray, BCC supernatant IgG, trimeric HA.
Assay [25] deals with recombinant soluble homotrimeric HA of A/northern shoveler/California/HKWF115/2007 - H6N1 (Influenza A virus A/northern shoveler/California/HKWF115/2007 (H6N1)). As to the kind of experiment: micro-array; captured IgG, V5-tagged trimeric HA.
The target in assay [26] is recombinant soluble homotrimeric HA of A/Hong Kong/156/97 - H5N1 (Influenza A virus A/Hong Kong/156/97 (H5N1)). As to the kind of experiment: micro-array; captured IgG, V5-tagged trimeric HA.
Assay [27] deals with recombinant soluble homotrimeric HA of A/Anhui/1/05 - H5N1 (Influenza A virus A/Anhui/1/2005 (H5N1)). As to the kind of experiment: micro-array; captured IgG, V5-tagged trimeric HA.
Assay [28] addresses recombinant soluble homotrimeric HA of A/Hong Kong/1073/99 - H9N2 (Influenza A virus A/Hong Kong/1073/99 (H9N2)). As to the kind of experiment: micro-array; captured IgG, V5-tagged trimeric HA.
In assay [29] the target is T4, recombinant homotrimeric HA, …. As to the kind of experiment: trimeric HA microarray, transfection set 4.

B1: TCN-539 (5056_A08) (antibody, V domains shown)
VH: QVQLVESGGGVVQPGRSLRLSCAASEITFITYAMHWVRQAPGKGLEWVALISDDGSNKFYADSVKGRFTISRDNSKNTLYLQMNSLRAEDTAAYYCAREGVYFDSGTYRGYFDYWGQETLVTVSS
VL: EIVLTQSPATLSLSPGERATLSCRASQSVSSYLAWYQQKPGQAPRLLIYDASNRATGIPARFSGSGSGTDFTLTISSLEPEDFAVYYCQQRSHWPPITFGQGTRLEIK
With B1, the Trimeric HA Binding RLU in assay [1] was 5330 RLU; in assay [2], 58800 RLU; in [3], 871 RLU; in assay [4], 6510 RLU; in assay [5] it was 2560 RLU. Moreover, the Trimeric HA Binding: RLU in [6] was 1490 RLU; in assay [7] it was 24300 RLU.

B2: TCN-535 (5246_P19) (antibody, V domains shown)
VH: QVQLVQSGSEVKKPGTSVKVSCTASGSVFTNYGISWVRQAPGQGLEWMGGIIPLFGAAKYAQKFQGRVTITADESTKTVYMELSRLTSKDTAIYFCAKAPRVYEYYFDQWGQGTPVTVSS
VL: EIVLTQSPGTLSLSPGERATLSCRASQSVSSSQLAWYQQKPGQAPRLIIYGASTRATGIPDRFSGSGSGTDFTLTIGRLEPEDFAVFFCQQYSTSPPTFGQGTKVDFK
Take B2: the Trimeric HA Binding RLU in assay [8] worked out at 22400 RLU; in [9], 25200 RLU; in assay [10], 21200 RLU; in assay [11], 20900 RLU; in assay [12] it was 25200 RLU; in assay [13] it was 4450 RLU. Further, the Trimeric HA Binding RLU in assay [14] was 18 RLU; in [15], 18200 RLU; in assay [16], 428 RLU; in assay [17], 836 RLU; in [18], 18100 RLU; in [19], 477 RLU. Also, the results for the Trimeric HA Binding RLU in assay [20] and in [21] were 21500 RLU and 25300 RLU, respectively.

B3: TCN-545 (5082_I15) (antibody, V domains shown)
VH: QVQLQQWGAGLLKPSETLSLSCAVFGGSFSDYYWTWIRQPPGKGLEWIGEIKHSGRTNYNPSLESRVTISVDTSKNQFSLKLSSVTAADTAIYYCARGTDPDTEGYCRSGSCSAFDFWGQGTLVTVSS
VL: EIVLTQSPGTLSLSPGERATLSCRASHFVNYRSLAWYQQTPGQVPRLLIYGASTRATGIPDRFSGSGSGTDFTLTISRLEPEDFAVYFCQQYGGSPRYTFGQGTRLEIK
Turning to B3, the Trimeric HA Binding RLU amounted to 900 RLU in [1]; 818 RLU in assay [22]; 32000 RLU in assay [2]; 5270 RLU in [23]; 1360 RLU in assay [5]. Further, the Trimeric HA Binding: RLU in assay [24] was 1170 RLU; in assay [25], 2320 RLU; in [26], 1560 RLU; in [27], 4880 RLU.

B4: TCN-536 (5095_N01) (antibody, V domains shown)
VH: QVQLQQWGAGLLKPSETLSLTCAVYGGSFSVSGYYWSWIRQPPGRGLEWIGEISHGGSTNYNPSLKSRVTISVDTTKNQFSLRLSSVTAADTAVYYCARGTDPDTEVYCRVGNCAAFDYWGQGSLVTVSS
VL: EIILAQSPGTLSLSPGERATLSCRASQFVSTRSLAWYQQRPGQAPRLLIYGASSRATGIPDRFSGSGSGTDFTLTISRLEPEDFAVYYCQHYGYSPRYAFGQGSKVEIK
With B4, the Trimeric HA Binding: RLU in assay [28] turned out to be 115 RLU. Moreover, the Trimeric HA Binding RLU in assay [8] is 39 RLU; in assay [9], 182 RLU; in assay [12], 49 RLU; in assay [13] it was 20600 RLU; in assay [29], 168 RLU; in assay [20], 260 RLU.
